In data set [1] the target is T1, EndoE-GH18L (Enterococcus faecalis, UniProt Q6U890).
T1 construct: gene ndoE; GH18 domain plus linker region (3HB-1, 3HB-2), residues 56-486; GST tag cut by TEV (GSG linker); E. coli BL21(DE3)
The experiment in a line: X-ray crystal structure of the complex, […] Å. The conditions noted are these: co-crystallised with 2.5 mM Man5GlcNAc; pH 6.5 Bis-Tris propane; GH18 active-site groove. Format: binding.

The subject of data set [2] is CC(=O)N[C@H]1[C@H](Oc2ccc([N+](=O)[O-])cc2)O[C@H](CO)[C@@H](O)[C@@H]1O. The experiment in a line: purified protein. The conditions noted are these: PCTP buffer pH 8, 5 nM enzyme, 0.09-12 mM substrate, GH20 active site within full-length EndoE.
Data set [3] shares this test system. Kind of data set: purified protein. As to conditions: PCTP buffer pH 8, 5 nM enzyme, 0.09-12 mM substrate, isolated GH20 domain. Format: biochemical, Enterococcus faecalis.

T1 sequence (Q6U890 entry or part of it): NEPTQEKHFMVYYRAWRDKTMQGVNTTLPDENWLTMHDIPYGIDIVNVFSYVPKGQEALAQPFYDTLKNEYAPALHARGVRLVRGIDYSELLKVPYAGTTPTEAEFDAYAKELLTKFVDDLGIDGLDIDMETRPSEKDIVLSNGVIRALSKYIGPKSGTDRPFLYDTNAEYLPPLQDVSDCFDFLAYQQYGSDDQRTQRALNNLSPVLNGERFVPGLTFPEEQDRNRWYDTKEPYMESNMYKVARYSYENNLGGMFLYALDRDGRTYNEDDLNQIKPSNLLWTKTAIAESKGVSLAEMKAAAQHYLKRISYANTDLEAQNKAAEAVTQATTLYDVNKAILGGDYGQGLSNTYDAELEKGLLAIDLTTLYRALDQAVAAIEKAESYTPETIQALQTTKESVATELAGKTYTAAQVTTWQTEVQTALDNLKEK

Turning to `CC(=O)N[C@H]1C(O)O[C@H](CO)[C@@H](O[C@@H]2O[C@H](CO[C@H]3O[C@H](CO[C@H]4O[C@H](CO)[C@@H](O)[C@H](O)[C@@H]4O)[C@@H](O)[C@H](O[C@H]4O[C@H](CO)[C@@H](O)[C@H](O)[C@@H]4O)[C@@H]3O)[C@@H](O)[C@H](O[C@H]3O[C@H](CO)[C@@H](O)[C@H](O)[C@@H]3O)[C@@H]2O)[C@@H]1O` (some centres unmarked) [Man5, Man5GlcNAc], the “X-ray crystal structure of the complex, 2.6 Å” value in data set [1] is reported as “crystal structure of EndoE-GH18L in complex with the Man5GlcNAc (Man5) product”.

On to EndoE (Enterococcus faecalis), for which, in data set [2], the Km (as a rule, the substrate concentration at which the rate is half of its maximum) came out at 450 µM; the kcat – broadly, the number of substrate molecules converted per active site and unit of time at saturation – is 41 s⁻¹.

For EndoE-GH20 (Enterococcus faecalis), in data set [3], the Michaelis-Menten constant (Km) is 970 µM and the kcat was 86 s⁻¹.

The values above are taken from article PMC8894350, “Mechanism of cooperative N-glycan processing by the multi-modular endoglycosidase EndoE” (Nature Communications, 2022).
